Data reported in patent publication US20170306005A1 (NASCIENT, published 2017).

Assays:
[1] = target: T1, mouse tenascin-C rCd4-His-FBG (rat; mouse, UniProt P05540 207-392, limits assumed); assay: SPR, captured Fab, 25 C
T1 construct: domain: domains 3 and 4; C-terminal FBG fusion; biotinylated in the ELISA screen; also called Mu TNC; mouse TNC rCd4-His-FBG; not shown: 6His tag
T1 sequence (chain (part 1 of 2)): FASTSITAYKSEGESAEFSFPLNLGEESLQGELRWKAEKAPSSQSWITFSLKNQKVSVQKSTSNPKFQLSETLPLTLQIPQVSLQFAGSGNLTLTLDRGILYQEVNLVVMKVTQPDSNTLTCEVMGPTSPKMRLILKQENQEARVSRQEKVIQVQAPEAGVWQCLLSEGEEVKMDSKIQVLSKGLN
T1 sequence (chain (part 2 of 2)): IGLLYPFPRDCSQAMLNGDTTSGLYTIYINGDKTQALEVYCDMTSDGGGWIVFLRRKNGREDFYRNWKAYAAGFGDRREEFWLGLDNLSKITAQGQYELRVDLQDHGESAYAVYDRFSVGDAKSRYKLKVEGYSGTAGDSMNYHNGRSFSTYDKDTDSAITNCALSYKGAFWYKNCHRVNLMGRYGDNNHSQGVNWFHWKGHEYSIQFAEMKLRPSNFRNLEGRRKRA
Experimental: (§1) Experiments were performed using a BIAcore T100 instrument with CM5 sensor chip according to the protocol provided with the Human Fab Capture Kit (GE, 28-9583-25). […] After reference signal subtraction, the data was fitted to a global 1:1 fit using the T100 BIAevaluation software (FIGS. 6 a-d).

[2] = target: T2, human tenascin-C rCd4-His-FBG (rat; human, UniProt P05540 207-392, limits assumed); assay: SPR, captured Fab, 25 C
T2 construct: domain: domains 3 and 4; C-terminal FBG fusion; biotinylated in the ELISA and HTRF screens; also called Hu TNC; human TNC rCd4-His-FBG; not shown: 6His tag
T2 sequence (chain (part 1 of 2)): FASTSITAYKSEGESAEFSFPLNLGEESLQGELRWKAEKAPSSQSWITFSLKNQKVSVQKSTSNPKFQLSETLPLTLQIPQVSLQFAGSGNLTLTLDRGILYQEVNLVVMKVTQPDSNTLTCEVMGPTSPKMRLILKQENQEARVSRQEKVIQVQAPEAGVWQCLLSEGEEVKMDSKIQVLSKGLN
T2 sequence (chain (part 2 of 2)): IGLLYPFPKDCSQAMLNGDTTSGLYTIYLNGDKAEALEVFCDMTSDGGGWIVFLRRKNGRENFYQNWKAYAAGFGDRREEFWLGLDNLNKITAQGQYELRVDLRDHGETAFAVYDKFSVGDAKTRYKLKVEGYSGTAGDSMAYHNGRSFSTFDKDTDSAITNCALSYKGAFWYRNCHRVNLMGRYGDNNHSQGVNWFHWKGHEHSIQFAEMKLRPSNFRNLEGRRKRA
Experimental: as §1

human Fc-His-FBG = target: T3, human Fc-His-FBG (human, UniProt P24821 1974-2201); assay: cell-based or functional assay
T3 sequence: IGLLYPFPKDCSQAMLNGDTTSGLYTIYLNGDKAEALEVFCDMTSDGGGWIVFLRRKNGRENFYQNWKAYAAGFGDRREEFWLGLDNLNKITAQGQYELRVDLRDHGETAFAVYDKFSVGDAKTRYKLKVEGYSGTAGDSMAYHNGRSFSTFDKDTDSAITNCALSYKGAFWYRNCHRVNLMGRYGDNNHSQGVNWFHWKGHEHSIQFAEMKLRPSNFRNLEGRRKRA

[3] = target: T4, human tenascin-R rCd4-His-FBG (rat; human, UniProt P05540 207-392, limits assumed); assay: SPR steady state, captured Fab, 25 C
T4 construct: domain: domains 3 and 4; C-terminal FBG fusion; also called Hu TNR; human TNR rCd4-His-FBG; not shown: 6His tag
T4 sequence (chain (part 1 of 2)): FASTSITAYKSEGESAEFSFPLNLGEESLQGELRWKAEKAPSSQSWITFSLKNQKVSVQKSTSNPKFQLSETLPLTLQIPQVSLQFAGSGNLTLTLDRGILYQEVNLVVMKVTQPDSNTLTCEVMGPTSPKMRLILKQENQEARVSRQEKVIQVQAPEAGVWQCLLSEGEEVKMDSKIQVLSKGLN
T4 sequence (chain (part 2 of 2)): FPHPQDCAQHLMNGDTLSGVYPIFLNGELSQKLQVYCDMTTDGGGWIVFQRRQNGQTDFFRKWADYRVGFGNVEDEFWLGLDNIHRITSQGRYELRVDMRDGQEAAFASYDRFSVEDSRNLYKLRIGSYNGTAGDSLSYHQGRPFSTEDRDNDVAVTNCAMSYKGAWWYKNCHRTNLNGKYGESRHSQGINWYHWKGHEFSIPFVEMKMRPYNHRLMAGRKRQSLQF
Experimental: as §1

Human FGB-rCd4 = target: T5, Human FGB-rCd4; assay: ELISA (DELFIA), antigen coated on the well, purified Fab at 50 nM, detected with anti-kappa or anti-lambda mAb and Europium-conjugated anti-mouse mAb
T5 construct: Not the same construct as m1, which has the FBG at the C terminus; also called human TNC FBG-rCD4; human tenascin-C FBG-rCd4-His (FBG at the N terminus of the rat Cd4 tag); not shown: rat Cd4 (domains 3 and 4) tag, the C-terminal His6 tag and the vector-derived junction residues of pBIOCAM4
T5 chain: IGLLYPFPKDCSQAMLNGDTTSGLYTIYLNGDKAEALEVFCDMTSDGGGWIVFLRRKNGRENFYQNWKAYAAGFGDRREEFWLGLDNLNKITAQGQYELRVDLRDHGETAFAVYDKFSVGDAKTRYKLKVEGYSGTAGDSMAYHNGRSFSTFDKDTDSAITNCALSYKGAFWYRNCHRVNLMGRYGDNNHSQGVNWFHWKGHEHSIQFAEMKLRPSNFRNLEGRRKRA

[4] = target: T1, mouse tenascin-C rCd4-His-FBG; assay: SPR, parental antibody
[5] = target: T6, dog tenascin-C rCD4-His-FBG (rat; dog, UniProt P05540 207-392, limits assumed); assay: SPR, captured purified IgG4, 37 C
T6 construct: domain: domains 3 and 4; C-terminal FBG fusion; also called Dog TNC; not shown: 6His tag
T6 sequence (chain (part 1 of 2)): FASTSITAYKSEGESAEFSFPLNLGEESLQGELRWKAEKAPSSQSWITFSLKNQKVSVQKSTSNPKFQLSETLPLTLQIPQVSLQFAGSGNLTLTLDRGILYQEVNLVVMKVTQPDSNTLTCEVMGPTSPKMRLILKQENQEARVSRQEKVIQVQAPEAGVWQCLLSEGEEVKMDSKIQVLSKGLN
T6 sequence (chain (part 2 of 2)): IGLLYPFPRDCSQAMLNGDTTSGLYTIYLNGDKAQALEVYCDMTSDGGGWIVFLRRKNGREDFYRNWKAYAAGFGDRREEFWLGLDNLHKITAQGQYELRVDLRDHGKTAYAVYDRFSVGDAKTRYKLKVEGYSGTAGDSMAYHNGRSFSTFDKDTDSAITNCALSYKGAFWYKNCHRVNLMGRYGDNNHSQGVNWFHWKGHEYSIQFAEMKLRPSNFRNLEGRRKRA
Experimental: (§2) Detailed kinetic parameters were evaluated for the 9 prioritised IgG4 antibodies. Binding characteristics were determined for interaction with human, rat and dog TNC rCD4-His-FBG, and human TNR rCD4-His-FBG. Kinetic assays followed essentially the same protocols as for the off-rate determinations described above, with some modifications as follows. […] Purified anti-FBG IgG4 was diluted to a concentration of 3.5 nM in PBS, pH 7.4, 0.05% Tween-20 and injected into FC2 at a flow rate of 10 μl/min, 60 s contact time. […] Antigens were prepared by doubling dilution in PBS, pH 7.4, 0.05% Tween-20 (highest concentration 100 nM except mouse rCD4-His-FBG which was 7 nM). Assays were performed at 37° C. (30 μl/min, 120 s contact time; mouse rCD4-His-FBGFBG 10 μl/min, 60 s contact time), with both the flow cell and injection chamber equilibrated to this temperature. As before, kinetic parameters were determined by reference cell subtraction and fitting the sensogram experimental data assuming a 1:1 interaction using BIAevaluation software (GE, BR-1005-97).

[6] = target: T1, mouse tenascin-C rCd4-His-FBG; assay: SPR, captured purified IgG4, 37 C
Experimental: as §2

[7] = target: T2, human tenascin-C rCd4-His-FBG; assay: SPR, captured purified IgG4, 37 C
Experimental: as §2

[8] = target: T7, rat tenascin-C rCd4-His-FBG (rat, UniProt P05540 207-392, limits assumed); assay: SPR, captured purified IgG4, 37 C
T7 construct: domain: domains 3 and 4; C-terminal FBG fusion; also called Rat TNC; rat TNC rCD4-His-FBG; not shown: 6His tag
T7 sequence (chain (part 1 of 2)): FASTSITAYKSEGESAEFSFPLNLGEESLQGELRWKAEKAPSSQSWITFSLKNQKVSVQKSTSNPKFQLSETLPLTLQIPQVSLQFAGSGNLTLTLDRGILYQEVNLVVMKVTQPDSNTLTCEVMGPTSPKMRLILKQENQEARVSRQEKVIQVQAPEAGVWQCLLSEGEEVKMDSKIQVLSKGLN
T7 sequence (chain (part 2 of 2)): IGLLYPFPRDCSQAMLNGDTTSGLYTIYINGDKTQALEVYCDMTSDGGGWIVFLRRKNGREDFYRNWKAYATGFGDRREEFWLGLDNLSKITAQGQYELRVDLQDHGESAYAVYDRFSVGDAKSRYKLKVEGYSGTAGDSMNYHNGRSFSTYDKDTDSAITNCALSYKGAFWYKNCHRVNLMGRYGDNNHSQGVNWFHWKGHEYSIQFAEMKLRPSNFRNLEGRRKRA
Experimental: as §2

[9] = target: T4, human tenascin-R rCd4-His-FBG; assay: SPR, captured purified IgG4, 37 C
Experimental: as §2

[10] = target: T1, mouse tenascin-C rCd4-His-FBG; assay: SPR off-rate screen, captured IgG4 supernatant, 25 C
How it was run: (§3)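 SPR at 25 °C: IgG4 (S241P) from culture supernatant, diluted 1:2 in 2×PBS-T, captured on anti-human Fc surface; antigen injected at a fixed 15 nM (human and mouse TNC rCd4-His-FBG) or 100 nM (human TNR rCd4-His-FBG), 30 μl/min. Association 1 min, dissociation 5 min; off-rates from reference-subtracted 1:1 fits.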

[11] = target: T2, human tenascin-C rCd4-His-FBG; assay: as above
How it was run: as §3

[12] = target: T4, human tenascin-R rCd4-His-FBG; assay: as above
How it was run: as §3

B1: Fab F3 (Fab, V domains shown)
VH: EVQLLESGGGLVQPGGSLRLSCAASGFTFSSYGMHWVRQAPGKGLEWVAVISYDGSNKYYADSVKGRFTISRGNSKNTLYLQMNSLKAEDTAVYYCAREGYDQLFSAESNAFDIWGQGTLVTVSS
VL: NFMLAQPHSVSESPGKTVTISCTRSSGSIASYFVQWFQQRPGSAPTAVIYEDNQRPSGVPDRFSGSIDSSSNSASLTISGLKTEDEADYYCQSYDSSNWVFGGGTKVTVLG
notes: monomeric Fab
- Kd [1]: 70.6 nM
- koff [1]: 0.00642 s⁻¹
- kon [1]: 91000 M⁻¹ s⁻¹
- Kd [2]: 27.4 nM
- koff [2]: 0.00346 s⁻¹
- kon [2]: 126000 M⁻¹ s⁻¹
- IC50, inhibition of Fc-His-HuFBG-evoked IL-8 release, THP1-Blue cells (human Fc-His-FBG): 13.8 nM
- IC50, inhibition of Fc-His-HuFBG-evoked alkaline phosphatase, THP1-Blue cells (human Fc-His-FBG): 8.4 nM
- Kd [3]: 1810 nM
- binding result (Human FGB-rCd4): binds
- fold difference in affinity between human and mouse rCd4-his-FBG [4]: 2.6 fold

B2: 160_01_A4 human IgG4 (antibody, V domains shown)
VH: EVRLVQSGAEVKKPGASVKVSCKVSGYTLTELSMHWVRQAPGKGLEWMGGFDPEDGETIYAQKFQGRVTMTEDTSTDTAYMELSSLRSEDTAVYYCATAQKETLGNAIWGQGTLVTVSS
VL: DIQMTQSPASLPTSVGDRVTITCRASQYIQGFLNWYQQKPGKAPRLLIYAASTLQDGVPSRFSGSGYGTDFTLTISSLQPEDFATYYCQQSYSTPWTFGQGTKVEIKR
notes: human IgG4 with hinge S241P; also called Antibody 160 01 A4 (derived from 2A5)
- Kd [5]: 0.094 nM
- koff [5]: 0.00018 s⁻¹
- kon [5]: 1.9e+06 M⁻¹ s⁻¹
- Kd [6]: 1.23 nM
- koff [6]: 0.000146 s⁻¹
- kon [6]: 118000 M⁻¹ s⁻¹
- Kd [7]: 0.21 nM
- koff [7]: 0.0005 s⁻¹
- kon [7]: 2.35e+06 M⁻¹ s⁻¹
- Kd [8]: 1.49 nM
- koff [8]: 0.00189 s⁻¹
- kon [8]: 1.27e+06 M⁻¹ s⁻¹
- Kd [9]: 15.2 nM
- fold lower affinity than for human TNC FBG [9]: > 70 fold
- koff [9]: 0.00399 s⁻¹
- kon [9]: 260000 M⁻¹ s⁻¹
- koff [10]: 5.9e-06 s⁻¹
- koff [11]: 6.7e-06 s⁻¹
- koff [12]: 0.011 s⁻¹
